Source: patent publication US11866760B2, “Microorganisms for the production of insect pheromones and related compounds” (Provivi, Inc., priority 2017, dated 2024)

Legend:
ALE1p (=LCA1p) = target: T1, ALE1p (=LCA1p) (Saccharomyces cerevisiae, UniProt Q08548); conditions: Chen Q et al. 2007; cited from earlier work
T1 sequence (Q08548 1-619): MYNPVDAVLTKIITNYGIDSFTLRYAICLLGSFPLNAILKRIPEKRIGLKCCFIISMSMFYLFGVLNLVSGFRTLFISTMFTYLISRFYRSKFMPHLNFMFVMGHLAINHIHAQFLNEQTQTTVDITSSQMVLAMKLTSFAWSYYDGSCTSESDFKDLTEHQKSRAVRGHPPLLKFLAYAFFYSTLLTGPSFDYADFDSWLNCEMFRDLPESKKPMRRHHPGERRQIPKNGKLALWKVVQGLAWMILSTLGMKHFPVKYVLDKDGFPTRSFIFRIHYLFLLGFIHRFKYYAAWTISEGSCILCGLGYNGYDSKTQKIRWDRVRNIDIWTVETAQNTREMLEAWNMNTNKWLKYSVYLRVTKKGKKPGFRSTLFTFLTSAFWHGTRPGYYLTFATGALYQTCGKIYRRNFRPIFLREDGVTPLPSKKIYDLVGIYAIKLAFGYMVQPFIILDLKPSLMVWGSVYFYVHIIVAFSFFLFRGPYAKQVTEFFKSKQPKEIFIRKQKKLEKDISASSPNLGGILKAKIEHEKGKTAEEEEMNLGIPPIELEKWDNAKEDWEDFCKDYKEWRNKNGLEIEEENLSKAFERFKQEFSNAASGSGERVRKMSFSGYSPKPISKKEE

methyl palmitate [1] = test: HaFAR mutant library cultivation in shake flasks; assay type: cell-based, Yarrowia lipolytica; conditions: shake flask experiments, 10 g/L methyl palmitate
Method: In a first step a shake flask experiment of the respective strains was performed to analyze fatty alcohol and fatty acid formation over time. The best performing clone of the strains expressing HaFAR, HaFAR S195A and HaFAR S418A were tested. 10 mL YPD was inoculated from patches of individual clones and incubated for 24 h at 28° C., 250 rpm in a 125 mL shake flask. Next, 25 mL YPD were inoculated with 5 mL starter culture in 500 mL shake flasks and incubated for 24 h at 28° C., 250 rpm. The cells were harvested and the pellets were resuspended in 15 mL S2 media and 10 g/L methyl palmitate was added. OD600 was measured and subsequently methyl palmitate was added. […] 4×0.5 mL samples were taken every 24 h and stored at −20° C. until analyzed according to a previously established standard protocol (FIG. 47 and FIG. 48). To improve sampling and reduce the standard deviation, samples were transferred directly into GC crimp vials and stored until analyzed.
Thus, sampling was reduced to 20 h. In previous 24 well plate bioconversion experiments the measured biomass was ˜2× higher compared to the shake flask experiment. […] The cells were harvested and the pellets were resuspended in 10 mL S2 media and 10 g/L, OD600 was measured and subsequently methyl palmitate was added. […] 4×0.5 mL samples were taken and analyzed according to a previously established standard protocol (FIG. 49). […]

methyl palmitate [2] = test: HaFAR mutant library cultivation in 24 well plates in Y. lipolytica SPV603; assay type: cell-based, Yarrowia lipolytica; conditions: second FAR copy in SPV603, 24 well plates
Method: Four individual clones of positive integrants were tested. Cultivation was performed in 24 well plates. Briefly, 2 mL YPD was inoculated from patches of individual clones and incubated for 24 h at 28° C., 1000 rpm. After 24 h OD600 was measured and the cells were centrifuged at 1000 rpm (Table 23). The cell pellets were resuspended in 1 mL S2 media and 10 g/L methyl palmitate was added. The cells were incubated for 18 h at 28° C., 1000 rpm. Cultivations were stored at −20° C. until analyzed. Extraction and analysis was performed according to previously established standard protocols using GC-FID.
In a first round four individual isolate from each transformation was tested. Cultivation was performed in 24 well plates. 2 mL YPD was inoculated from patches of individual clones and incubated for 24 h at 28° C., 1000 rpm. After 24 h OD600 was measured and the cells were centrifuged at 1000 rpm. The cell pellets were resuspended in 1 mL S2 media and 10 g/L methyl palmitate was added. The cells were incubated for 24 h at 28° C., 1000 rpm. Cultivations were stored at −20° C. until analyzed. Next, four clones of the best performing positive integrant were tested. Cultivation was performed in 24 well plates. 2 mL YPD was inoculated from patches of individual clones and incubated for ˜28 h at 28° C., 1000 rpm. After 28 h OD600 was measured and the cells were centrifuged at 1000 rpm. The cell pellets were resuspended in 1 mL S2 media and 10 g/L methyl palmitate was added. The cells were incubated for 18 h at 28° C., 1000 rpm. Cultivations were stored at −20° C. until analyzed.
Cell pellets were resuspended with 500 μL 5% NaOH (in methanol) then heated for 1 hour at 85° C. Samples were cooled down and then acidified by adding 400 μL 5N HCl. Next, 500 μL chloroform (containing 1 mM C17:0 heptadecanoate internal standard) were added to samples. Samples were mixed vigorously then spun down for 2 minutes at 13,000 RPM using a table top centrifuge. 450 μL chloroform were transferred to a new vial then evaporated at 85° C. for ˜15 minutes. Samples were then resuspended in 50 μL BSTFA (and were now ready for GC analysis). After analysis of the fatty alcohols samples were diluted ˜1:10 and rerun on the GC to improve peak separation of the fatty acid peaks.
All quantifications were based on the concentration of the internal standard. The concentration of the internal standard C17ME is 1 mM. The final concentration of fatty alcohols as well as fatty acids were calculated based on the effective carbon number compared to the internal standard.

In the case of `[Zn+2]` [Zn2+], the inhibitory concentration (ALE1p (=LCA1p)) is listed as “above 0.1 mM”.

B1: HaFAR (S418A) (protein)
chain: MVVLTSKETKPSVAEFYAGKSVFITGGTGFLGKVFIEKLLYSCPDIENIYMLIREKKGLSVSERIKQFLDDPLFTRLKDKRPADLEKIVLIPGDITAPDLGINSENEKMLIEKVSVIIHSAATVKFNEPLPTAWKINVEGTRMMLALSRRMKRIEVFIHISTAYTNTNREVVDEILYPAPADIDQVHQYVKDGISEEDTEKILNGRPNTYTFTKALTEHLVAENQAYVPTIIVRPSVVAAIKDEPLKGWLGNWFGATGLTVFTAKGLNRVIYGHSSYIVDLIPVDYVANLVIAAGAKSSKSTELKVYNCCSSSCNPVTIGTLMSMFADDAIKQKSYAMPLPGWYIFTKYKWLVLLLTFLFQVIPAYVTDLSRHLIGKSPRYIKLQSLVNQTRSSIDFFTNHSWVMKADRVRELYASLAPADKYLFPCDPTDINWTHYIQDYCWGVRHFLEKKSYE
In the case of B1, the Z11-16OH titer (methyl palmitate [1]) is reported as about 80 mg/L and the “Z11-16OH titers compared to the HaFAR double copy strain” value (methyl palmitate [2]) is reported as “distinct increase of Z11-16OH titers”.

B2: HaFAR (S195A) (protein)
chain: MVVLTSKETKPSVAEFYAGKSVFITGGTGFLGKVFIEKLLYSCPDIENIYMLIREKKGLSVSERIKQFLDDPLFTRLKDKRPADLEKIVLIPGDITAPDLGINSENEKMLIEKVSVIIHSAATVKFNEPLPTAWKINVEGTRMMLALSRRMKRIEVFIHISTAYTNTNREVVDEILYPAPADIDQVHQYVKDGIAEEDTEKILNGRPNTYTFTKALTEHLVAENQAYVPTIIVRPSVVAAIKDEPLKGWLGNWFGATGLTVFTAKGLNRVIYGHSSYIVDLIPVDYVANLVIAAGAKSSKSTELKVYNCCSSSCNPVTIGTLMSMFADDAIKQKSYAMPLPGWYIFTKYKWLVLLLTFLFQVIPAYVTDLSRHLIGKSPRYIKLQSLVNQTRSSIDFFTNHSWVMKADRVRELYASLSPADKYLFPCDPTDINWTHYIQDYCWGVRHFLEKKSYE
For B2, the Z11-16OH titer (methyl palmitate [1]) was about 120 mg/L and the “Z11-16OH titers compared to the HaFAR double copy strain” value (methyl palmitate [2]) was “distinct increase of Z11-16OH titers”.
